Measured values reported in patent US20020155571A1, “Triazine degrading enzymes” (priority 2000, published 2002).

Assay: High throughput mass spectrometry screen of triazine hydrolase library against about 15 triazine derivatives
Type: biochemical
Details: not exclusive; for Substrate Activity: nme-atrazine: column lists substrates on which the library member shows preferred triazine hydrolase activity; for Substrate Activity: ametryn: preferred substrates
[1] = Table 5, the value is the triazine substrate the library member (atzA-based variant) is active on, preferred members
[2] = substrate propazine, column indicates preferred embodiments

Molecule	Substrate Activity [1]	Substrate Activity: ametryn	other results
113 (protein) MQTLSIQHGTLVTMDQYRRVLGDSWVHVQDGRIVALGVHAESVPPPADRVIDARGKVVLPGFINAHTHVNQILLRGGPSHGRQFYDWLFNVLYPGQKAMRPEVAVAVRLYCAEAVRSGITTINEEADSAIYPGNIEAAMAVYGEVGVRVVYARMFFDRMDGRIQGYVDALKARSPQVELCSIMEETAVAKDRITALSDQYHGTAGGRISVWPAPATTTTVTVEGMRWAQAFARDRAVMWTLHMAESDHDERIIGGSPAEYMECYGLLDERLQVAHCVYFDRKDVRLLHRHNVKVASQVVSNAYLGSGVAPVPEMVERGMAVGIGTDNDNSCDSVNMIGDMKFMAHIHRAVHRDADVLTPEKILEMATIDGARSLGMDHEIGSIETGKRADLILLDLRHPQTTPHHHLAATIVFQAYGNEVDTVLIDGNVVMENRRLSFLPPERELAFLEEAQSRATAILQRANMVANPAWRSL	atratone	–	–
248 (protein) MQTLSIQHGTLVTMDQYRRVLGDSWVHVQDGRIVALGVHAESVPPPADRVIDARGKVVLPGFINAHTHVNQILLRGGPSHGRQFYDWLFNVVYPGQKAMRPEVAVAVRLYCAEAVRSGITTINEEADSAIYPGNIEAAMAVYGEVGVRVVYARMFFDRMDGRIQGYVDALKARSPQVELCSIMEETAVAKDRITALSDQYHGTAGGRISVWPAPATTTTVTVEGMRWAQAFARDRAVMWTLHMAESDHDERIIGWSPAEYMECYGLLDERLQVAHCVYFDRKDVRLLHRHNVKVASQVVSNAYLGSGVAPVPEMVERGMAVGIGTDNNNSSDSVNMIGDMKFMAHIHRAVHRDADVLTPEKILEMATIDGARSLGMDHEIGSIETGKRADLILLDLRHPQTTPHHHLAATIVFQAYGNEVDTVLIDGNVVMENRRLSFLPPERELAFLEEAQSRATAILQRANMVANPAWRSL	–	–	Substrate Activity [2]: propazine
345 (protein) MQTLSIQHGTLVTMDQYRRVLGDSWVHVQDGRIVALGVHAESVPPPADRVIDARGKVVLPGFINAHTHVNQILLRGGPSHGRQLYDWLFNVLYPGQKAMRPEVAVAVRLYCAEAVRSGITTINEEADSAIYPGNIEAAMAVYGEVGVRVVYARMFFDRMDGRIQGYVDALKARSPQVELCSIMEETAVAKDRITALSDQYHGTAGGRISVWPAPATITTVTVEGMRWAQAFARDRAVMWTLHMAESDHDERILGGSPAEYMECYGLLDERLQVAHCVYFDRKDVRLLHRHNVKVASQVVSNAYLGSGVAPVPEMVERGMAVGIGTDNDNSCDSVNMIGDMKFMAHIHRAVHRDADVLTPEKILEMATIDGARSLGMDHEIGSIETGKRADLILLDLRHPQTTPHHHLAATIVFQAYGNEVDTVLIDGNVVMENRRLSFLPPERELAFLEEAQSRATAILQRANMVANPAWRSL	–	–	Substrate Activity: nme-atrazine: nme-atrazine
117 (protein) MQTLSIQHGTLVTMDQYRRVLGDSWVHVQDGRIVALGVHAESVPPPADRVIDARGKVVLPGFINAHTHVNQILLRGGPSHGRQFYDWLFNVLYPGQKAMRPEVAVAVRLYCAEAVRSGITTINEEADSAIYPGNIEAAMAVYGEVGVRVVYARMFFDRMDGRIQGYVDALKARSPQVELCSIMEETAVAKDRITALSDQYHGTAGGRISVWPAPATTTTVTVEGMRWAQAFARDRAVMWTLHMAESDHDERIIGWSPAEYMECYGLLDERLQVAHCVYFDRKDVRLLHRHNVKVASQVVSNAYLGSGVAPVPEMVERGMAVGIGTDNDNSCDSVNMIGDMKFMAHIHRAVHRDADVLTPEKILEMATIDGARSLGMDHEIGSIETGKRADLILLDLRHPQTTPHHHLAATIVFQAYGNEVDTVLIDGNVVMENRRLSFLPPERELAFLEEAQSRATAILQRANMVANPAWRSL	atratone	–	–
349 (protein) MQTLSIQHGTLVTMDQYRRVLGDSWVHVQDGRIVALGVHAESVPPPADRVIDARGKVVLPGFINAHTHVNQILLRGGPSHGRQLYDWLFNVLYPGQKAMRPEVAVAVRLYCAEAVRSGITTINEEADSAIYPGNIEAAMAVYGEVGVRVVYARMFFDRMDGRIQGYVDALKARSPQVELCSIMEETAVAKDRITALSDQYHGTAGGRISVWPAPATITTVTVEGMRWAQAFARDRAVMWTLHMAESDHDERILGWSPAEYMECYGLLDERLQVAHCVYFDRKDVRLLHRHNVKVASQVVSNAYLGSGVAPVPEMVERGMAVGIGTDNDNSCDSVNMIGDMKFMAHIHRAVHRDADVLTPEKILEMATIDGARSLGMDHEIGSIETGKRADLILLDLRHPQTTPHHHLAATIVFQAYGNEVDTVLIDGNVVMENRRLSFLPPERELAFLEEAQSRATAILQRANMVANPAWRSL	–	–	Substrate Activity: nme-atrazine: nme-atrazine
244 (protein) MQTLSIQHGTLVTMDQYRRVLGDSWVHVQDGRIVALGVHAESVPPPADRVIDARGKVVLPGFINAHTHVNQILLRGGPSHGRQFYDWLFNVVYPGQKAMRPEVAVAVRLYCAEAVRSGITTINEEADSAIYPGNIEAAMAVYGEVGVRVVYARMFFDRMDGRIQGYVDALKARSPQVELCSIMEETAVAKDRITALSDQYHGTAGGRISVWPAPATTTTVTVEGMRWAQAFARDRAVMWTLHMAESDHDERIIGGSPAEYMECYGLLDERLQVAHCVYFDRKDVRLLHRHNVKVASQVVSNAYLGSGVAPVPEMVERGMAVGIGTDNNNSSDSVNMIGDMKFMAHIHRAVHRDADVLTPEKILEMATIDGARSLGMDHEIGSIETGKRADLILLDLRHPQTTPHHHLAATIVFQAYGNEVDTVLIDGNVVMENRRLSFLPPERELAFLEEAQSRATAILQRANMVANPAWRSL	–	–	Substrate Activity [2]: propazine
128 (protein) MQTLSIQHGTLVTMDQYRRVLGDSWVHVQDGRIVALGVHAESVPPPADRVIDARGKVVLPGFINAHTHVNQILLRGGPSHGRQFYDWLFNVLYPGQKAMRPEVAVAVRLYCAEAVRSGITTINEEADSAIYPGNIEAAMAVYGEVGVRVVYARMFFDRMDGRIQGYVDALKARSPQVELCSIMEETAVAKDRITALSDQYHGTAGGRISVWPAPATTTTVTVEGMRWAQAFARDRAVMWTLHMAESDHDERILGWSPAEYMECYGLLDERLQVAHCVYFDRKDVRLLHRHNVKVASQVVSNAYLGSGVAPVPEMVERGMAVGIGTDNNNSSDSVNMIGDMKFMAHIHRAVHRDADVLTPEKILEMATIDGARSLGMDHEIGSIETGKRADLILLDLRHPQTTPHHHLAATIVFQAYGNEVDTVLIDGNVVMENRRLSFLPPERELAFLEEAQSRATAILQRANMVANPAWRSL	atrazine	–	–
314 (protein) MQTLSIQHGTLVTMDQYRRVLGDSWVHVQDGRIVALGVHAESVPPPADRVIDARGKVVLPGFINAHTHVNQILLRGGPSHGRQLYDWLFNVLYPGQKAMRPEVAVAVRLYCAEAVRSGITTINEDADSAIYPGNIEAAMAVYGEVGVRVVYARMFFDRMDGRIQGYVDALKARSPQVELCSIMEETAVAKDRITALSDQYHGTAGGRISVWPAPATTTTVTVEGMRWAQAFARDRAVMWTLHMAESDHDERILGGSPAEYMECYGLLDERLQVAHCVYFDRKDVRLLHRHNVKVASQVVSNAYLGSGVAPVPEMVERGMAVGIGTDNDNSSDSVNMIGDMKFMAHIHRAVHRDADVLTPEKILEMATIDGARSLGMDHEIGSIETGKRADLILLDLRHPQTTPHHHLAATIVFQAYGNEVDTVLIDGNVVMENRRLSFLPPERELAFLEEAQSRATAILQRANMVANPAWRSL	–	ametryn	–
124 (protein) MQTLSIQHGTLVTMDQYRRVLGDSWVHVQDGRIVALGVHAESVPPPADRVIDARGKVVLPGFINAHTHVNQILLRGGPSHGRQFYDWLFNVLYPGQKAMRPEVAVAVRLYCAEAVRSGITTINEEADSAIYPGNIEAAMAVYGEVGVRVVYARMFFDRMDGRIQGYVDALKARSPQVELCSIMEETAVAKDRITALSDQYHGTAGGRISVWPAPATTTTVTVEGMRWAQAFARDRAVMWTLHMAESDHDERILGGSPAEYMECYGLLDERLQVAHCVYFDRKDVRLLHRHNVKVASQVVSNAYLGSGVAPVPEMVERGMAVGIGTDNNNSSDSVNMIGDMKFMAHIHRAVHRDADVLTPEKILEMATIDGARSLGMDHEIGSIETGKRADLILLDLRHPQTTPHHHLAATIVFQAYGNEVDTVLIDGNVVMENRRLSFLPPERELAFLEEAQSRATAILQRANMVANPAWRSL	atrazine	–	–
370 (protein) MQTLSIQHGTLVTMDQYRRVLGDSWVHVQDGRIVALGVHAESVPPPADRVIDARGKVVLPGFINAHTHVNQILLRGGPSHGRQLYDWLFNVLYPGQKAMRPEVAVAVRLYCAEAVRSGITTINEEADSAIYPGNIEAAMAVYGEVGVRVVYARMFFDRMDGRIQGYVDALKARSPQVELCSIMEETAVAKDRITALSDQYHGTAGGRISVWPAPATTTTVTVEGMRWAQAFARDRAVMWTLHMAESDHDERIIGGSPAEYMECYGLLDERLQVAHCVYFDRKDVRLLHRHNVKVASQVVSNAYLGSGVAPVPEMVERGMAVGIGTDNDNSSDSVNMIGDMKFMAHIHRAVHRDADVLTPEKILEMATIDGARSLGMDHEIGSIETGKRADLILLDLRHPQTTPHHHLAATIVFQAYGNEVDTVLIDGNVVMENRRLSFLPPERELAFLEEAQSRATAILQRANMVANPAWRSL	–	ametryn	–
318 (protein) MQTLSIQHGTLVTMDQYRRVLGDSWVHVQDGRIVALGVHAESVPPPADRVIDARGKVVLPGFINAHTHVNQILLRGGPSHGRQLYDWLFNVLYPGQKAMRPEVAVAVRLYCAEAVRSGITTINEDADSAIYPGNIEAAMAVYGEVGVRVVYARMFFDRMDGRIQGYVDALKARSPQVELCSIMEETAVAKDRITALSDQYHGTAGGRISVWPAPATTTTVTVEGMRWAQAFARDRAVMWTLHMAESDHDERILGWSPAEYMECYGLLDERLQVAHCVYFDRKDVRLLHRHNVKVASQVVSNAYLGSGVAPVPEMVERGMAVGIGTDNDNSSDSVNMIGDMKFMAHIHRAVHRDADVLTPEKILEMATIDGARSLGMDHEIGSIETGKRADLILLDLRHPQTTPHHHLAATIVFQAYGNEVDTVLIDGNVVMENRRLSFLPPERELAFLEEAQSRATAILQRANMVANPAWRSL	–	ametryn	–
382 (protein) MQTLSIQHGTLVTMDQYRRVLGDSWVHVQDGRIVALGVHAESVPPPADRVIDARGKVVLPGFINAHTHVNQILLRGGPSHGRQLYDWLFNVLYPGQKAMRPEVAVAVRLYCAEAVRSGITTINEEADSAIYPGNIEAAMAVYGEVGVRVVYARMFFDRMDGRIQGYVDALKARSPQVELCSIMEETAVAKDRITALSDQYHGTAGGRISVWPAPATTTTVTVEGMRWAQAFARDRAVMWTLHMAESDHDERILGWSPAEYMECYGLLDERLQVAHCVYFDRKDVRLLHRHNVKVASQVVSNAYLGSGVAPVPEMVERGMAVGIGTDNDNSSDSVNMIGDMKFMAHIHRAVHRDADVLTPEKILEMATIDGARSLGMDHEIGSIETGKRADLILLDLRHPQTTPHHHLAATIVFQAYGNEVDTVLIDGNVVMENRRLSFLPPERELAFLEEAQSRATAILQRANMVANPAWRSL	–	ametryn	–
